Test results from the Human Domainome abundance scans (Beltran et al. 2025).

B1: Zinc finger homeobox protein 3, residues 2244 to 2299; numbered along this chain, Q15911 (parent)
chain: SSRTRFTDYQLRVLQDFFDANAYPKDDEFEQLSNLLNLPTRVIVVWFQNARQKARK

Variants of: B1
Experiment: abundance fitness (aPCA) (normalised: wild type 0, dead -1); higher = more abundant; growth selection in yeast, the domain comes from the species named
Settings: Homo sapiens

Abundance fitness: each site, then its substitutions
Q31: S -0.082; W -0.279; E -0.066; K 0.022; Y -0.186; M -0.146; T 0.035; F 0.162; N 0.366; L -0.257; H -0.165; R -0.007; D -0.193; P -0.764; G -0.055; C -0.031; I 0.117; A -0.192
S33: K -0.129; T -0.316; W -0.848; Q -0.507; D -0.833; I -1.08; C -0.498; G -0.083; R -0.05; E -0.5; H -0.085; A -0.109; M -0.638; V -0.452; Y -0.871; N -0.728
Y23: G -0.332; F 0.122; A -0.188; E 0.139; T -0.043; W 0.019; D -0.018; M 0.041; R -0.019; N 0.013; P -0.749; C -0.283; I 0.092; Q -0.011; K -0.13; V -0.099; S -0.051; L -0.161
A20: T -0.044; S -0.065; G -0.13; Y -0.291; N 0.24; D -0.102; M -0.268; Q -0.111; V -0.249; W -0.36; E -0.115; I -0.405; R 0.075; L -0.188; P -0.543; F -0.618
L36: C -0.313; S -0.272; F -0.659; Y -0.86; A -0.238; D -0.908; T 0.013; P -1.06; Q -0.988; E -0.892; W -0.811; V 0.024; M -0.375; G -0.929; H -1.06; I -0.459; K -0.95; R -0.748
K25: W -0.512; E -0.306; G -0.14; A -0.075; R 0.013; T -0.161; H -0.267; F -0.338; Q -0.26; S -0.133; P -0.228; I -0.226; C -0.184; V -0.115; D -0.466; L -0.136
F18: Y 0.011
D26: G -0.247; F -0.332; K -0.1; T 0.021; Y -0.105; H -0.683; L -0.307; E -0.214; M 0.018; C -0.506; I 0.038; S -0.219; V -0.055; Q -0.188; R -0.16; W -0.376; P -0.163
D19: K -0.164; R -0.012; W -0.329; G -0.414; V -0.141; E 0.172; P -0.686; S -0.299; M 0.169; A -0.024; C -0.036; Q -0.263; T 0.046
L32: V -0.151; R -0.856; T -0.497; H -0.878; C -0.641; G -0.842; A -0.568; F -0.546; W -0.56; D -0.637; I -0.17; S -0.812; E -0.957; M 0.003; P -1.02; Y -0.19
N37: A -0.096; K -0.009; I -0.289; D -0.032; P -0.831; H -0.013; V -0.117; T -0.179; S -0.064; M -0.038; F -0.236; G -0.046; E -0.034; R -0.057; Q -0.12
F29: N -0.622; L -0.035; R -0.324; A -0.362; P -0.915; Y -0.052; S -0.423; D -0.955; Q -0.435; I 0.071; W -0.27; K -0.412; V -0.102; H -0.484; T -0.27; M -0.271
T40: H -0.127; C -0.012; I -0.175; A -0.119; F -0.107; G -0.208; D -0.356
P39: Y -0.99; H -0.149; E -0.06; T -0.209; W -1.08; F -0.715; K -0.197; S 0.035; L -0.786; R -0.258; G -0.297; D 0.196; Q -0.028; V -1.09; N -0.157; C -0.634; A -0.342
E28: C -0.539; Q -0.169; L -0.739; F -0.603; K -0.422; I -0.374; M -0.347; D 0.2; Y -0.785; N -0.39; T -0.236; S -0.295; V -0.142; H -0.435; R -0.481; W -0.719; G -0.488
L38: D -1.07; K -0.531; H -0.967; R -0.517; N -0.76; P -1.03; F -0.522; T -0.166; Q -0.174; Y -0.625; C -0.451; V -0.226; E -0.278; M -0.026; S -0.506; G -0.884
N21: D -0.306; S -0.157; V -0.422; K 0.166; Q -0.26; W -0.722; M -0.394; G -0.378; E -0.262; L -0.912; H 0.031; T 0.011; C -0.232; R -0.237; A -0.428; P -0.74
P24: F -0.533; R -0.633; S -0.734; T -0.856; H -0.927; G -1.24; A -0.555; N -0.922; V -0.657; W -0.381
A22: F -0.353; H -0.125; L -0.129; T 0.01; R -0.147; N -0.024; E 0.082; M 0.106; I -0.07; V -0.14; D 0.219; P 0.101; G 0.015; Q -0.127; W -0.054; C -0.156; Y -0.196; K -0.17
D27: N -0.063; Q -0.121; M -0.037; I -0.17; R -0.147; F -0.233; C -0.294; A -0.117; L -0.17; T -0.078; K -0.113; Y -0.16; W -0.157; G 0.095; E -0.084; V -0.215; P -0.388; S -0.077
L35: V 0.041; T 0.117; C -0.176; D 0.115; F -0.382; H -0.088; A -0.078; N -0.004; M 0.085; E -0.107; P -0.918; R 0.085; S 0.007; I 0.067; G -0.06; K 0.201; Y -0.129
E30: S -0.135; G -0.357
N34: C -0.343; E 0.118; D -0.199; G -0.058; P -0.137; L -0.17; Y -0.161; A 0.067; R -0.113; W -0.61; T -0.145; Q -0.208; V 0.001; M -0.024; S 0.066; K 0.137
